The numbers were not newly measured in patent US20050107320A1, “Methods and compositions for use in interventional pharmacogenomics” (priority 2003, published 2005), which cites them from elsewhere.

The conditions of data set [1]: administered systemically.

For the substance “EPO: glycoprotein hormone involved in the growth and maturation of erythroid progenitor cells into erythrocytes”, the clinical tolerability result was “well tolerated clinically”. Also, the “crossing of the blood-brain barrier” value in data set [1] is reported as “can cross the blood-brain barrier”.
